Data: PMC9482650, “Quantitative fragmentomics allow affinity mapping of interactomes” (Nature Communications, 2022)

T1: CARD11, Q9BXL7
T1 sequence (Q9BXL7 662-765, limits assumed, looked up): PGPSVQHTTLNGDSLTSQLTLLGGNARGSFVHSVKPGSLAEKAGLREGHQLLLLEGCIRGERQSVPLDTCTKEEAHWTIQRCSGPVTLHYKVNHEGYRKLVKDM

T2: HTRA3, P83110
T2 sequence (P83110 354-453, limits assumed, looked up): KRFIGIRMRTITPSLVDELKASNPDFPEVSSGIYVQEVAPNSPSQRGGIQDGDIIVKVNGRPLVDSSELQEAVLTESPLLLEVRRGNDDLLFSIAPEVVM

T3: LIN7B, Q9HAP6
T3 sequence (Q9HAP6 88-185, limits assumed, looked up): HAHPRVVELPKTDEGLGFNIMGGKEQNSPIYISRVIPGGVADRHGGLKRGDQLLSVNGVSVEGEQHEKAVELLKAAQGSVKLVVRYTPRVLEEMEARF

T4: LNX2_2, Q8N448
T4 sequence (Q8N448 334-432, limits assumed, looked up): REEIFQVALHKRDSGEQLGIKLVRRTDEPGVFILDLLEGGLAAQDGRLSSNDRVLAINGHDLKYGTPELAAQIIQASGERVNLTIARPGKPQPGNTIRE

T5: LRRC7, Q96NW7
T5 sequence (Q96NW7 1440-1537, limits assumed, looked up): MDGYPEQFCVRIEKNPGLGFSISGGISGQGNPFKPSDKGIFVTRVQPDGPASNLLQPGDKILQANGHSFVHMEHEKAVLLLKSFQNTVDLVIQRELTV

T6: NHERF3_1, Q5T2W1
T6 sequence (Q5T2W1 4-100, limits assumed, looked up): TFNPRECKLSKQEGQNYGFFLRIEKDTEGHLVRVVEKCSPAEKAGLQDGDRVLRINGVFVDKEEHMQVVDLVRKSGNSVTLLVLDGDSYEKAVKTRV

T7: NHERF3_3, Q5T2W1
T7 sequence (Q5T2W1 238-333, limits assumed, looked up): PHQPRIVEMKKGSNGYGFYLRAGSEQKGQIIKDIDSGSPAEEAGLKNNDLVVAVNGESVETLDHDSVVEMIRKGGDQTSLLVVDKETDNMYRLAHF

T8: PCLO, Q9Y6V0
T8 sequence (Q9Y6V0 4491-4600, limits assumed, looked up): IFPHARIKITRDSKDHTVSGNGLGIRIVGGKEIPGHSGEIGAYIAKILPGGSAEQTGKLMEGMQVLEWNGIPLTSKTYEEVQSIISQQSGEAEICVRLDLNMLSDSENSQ

T9: SNTG1, Q9NSN8
T9 sequence (Q9NSN8 52-150, limits assumed, looked up): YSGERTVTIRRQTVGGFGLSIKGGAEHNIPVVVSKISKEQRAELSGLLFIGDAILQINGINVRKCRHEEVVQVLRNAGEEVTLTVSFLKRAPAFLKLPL


Columns and labels:
Experiment in all cases: holdup assay
Design in all cases: key: below the threshold = too weak to quantify, mostly under pKd 3.1 to 4
Settings in all cases: plain residues with an end cap or a label only (N-terminal biotin on a linker: ado-ado)
CARD11, Q9BXL7 = target: T1, CARD11, Q9BXL7
DLG4_3, P78352 = target: DLG4_3, P78352
DLG5_1, Q8TDM6 = target: DLG5_1, Q8TDM6
GOPC, Q9HD26 = target: GOPC, Q9HD26
GRID2IP_2, A4D2P6 = target: GRID2IP_2, A4D2P6
GRIP2_5, Q9C0E4 = target: GRIP2_5, Q9C0E4
GRIP2_7, Q9C0E4 = target: GRIP2_7, Q9C0E4
HTRA3, P83110 = target: T2, HTRA3, P83110
IL16_3, Q14005 = target: IL16_3, Q14005
Inadl_10, Q8NI35 = target: Inadl_10, Q8NI35
Inadl_5, Q8NI35 = target: Inadl_5, Q8NI35
LAP2, Q96RT1 = target: LAP2, Q96RT1
LDB3, O75112 = target: LDB3, O75112
LIN7B, Q9HAP6 = target: T3, LIN7B, Q9HAP6
LNX2_2, Q8N448 = target: T4, LNX2_2, Q8N448
LRRC7, Q96NW7 = target: T5, LRRC7, Q96NW7
MAGI2_4, Q86UL8 = target: MAGI2_4, Q86UL8
NHERF3_1, Q5T2W1 = target: T6, NHERF3_1, Q5T2W1
NHERF3_3, Q5T2W1 = target: T7, NHERF3_3, Q5T2W1
NHERF4_1, Q86UT5-2 = target: NHERF4_1, Q86UT5-2
NHERF4_2, Q86UT5 = target: NHERF4_2, Q86UT5
PCLO, Q9Y6V0 = target: T8, PCLO, Q9Y6V0
PICK1, Q9NRD5 = target: PICK1, Q9NRD5
SCRIB_2, Q14160 = target: SCRIB_2, Q14160
SCRIB_3, Q14160 = target: SCRIB_3, Q14160
SNTG1, Q9NSN8 = target: T9, SNTG1, Q9NSN8
SNX27, Q96L92 = target: SNX27, Q96L92
TJP2_1, Q9UDY2 = target: TJP2_1, Q9UDY2
Chain of TJP2_1, Q9UDY2 (Q9UDY2 24-128): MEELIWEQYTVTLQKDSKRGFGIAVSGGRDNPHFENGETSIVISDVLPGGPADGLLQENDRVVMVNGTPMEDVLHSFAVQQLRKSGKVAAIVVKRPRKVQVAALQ

Chain of SCRIB_3, Q14160 (Q14160 999-1103): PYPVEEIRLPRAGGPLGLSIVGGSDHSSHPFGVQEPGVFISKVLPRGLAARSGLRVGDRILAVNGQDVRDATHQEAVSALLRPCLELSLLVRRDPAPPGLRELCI
Chain of IL16_3, Q14005 (Q14005 1107-1207): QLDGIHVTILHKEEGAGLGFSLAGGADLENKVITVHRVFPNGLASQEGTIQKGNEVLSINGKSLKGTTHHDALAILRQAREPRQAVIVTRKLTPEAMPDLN
Chain of MAGI2_4, Q86UL8 (Q86UL8 772-865): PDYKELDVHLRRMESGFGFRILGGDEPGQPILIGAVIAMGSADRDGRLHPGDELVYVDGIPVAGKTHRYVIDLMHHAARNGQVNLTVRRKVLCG
Chain of PICK1, Q9NRD5 (Q9NRD5 17-115): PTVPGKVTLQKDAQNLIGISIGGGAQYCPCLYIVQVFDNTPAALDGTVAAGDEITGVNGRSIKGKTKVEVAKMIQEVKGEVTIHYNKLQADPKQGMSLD
Chain of DLG5_1, Q8TDM6 (Q8TDM6 617-713): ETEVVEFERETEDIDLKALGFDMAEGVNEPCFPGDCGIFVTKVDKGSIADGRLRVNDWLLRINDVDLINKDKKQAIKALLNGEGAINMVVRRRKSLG
Chain of NHERF4_2, Q86UT5 (Q86UT5 220-308): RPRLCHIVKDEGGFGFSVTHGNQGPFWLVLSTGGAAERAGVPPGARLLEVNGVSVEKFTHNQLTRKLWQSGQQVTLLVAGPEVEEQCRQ
Chain of Inadl_5, Q8NI35 (Q8NI35 673-780): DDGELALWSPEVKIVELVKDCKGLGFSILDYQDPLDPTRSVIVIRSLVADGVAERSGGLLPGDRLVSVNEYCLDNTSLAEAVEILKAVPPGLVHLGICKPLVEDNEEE
Chain of Inadl_10, Q8NI35 (Q8NI35 1673-1763): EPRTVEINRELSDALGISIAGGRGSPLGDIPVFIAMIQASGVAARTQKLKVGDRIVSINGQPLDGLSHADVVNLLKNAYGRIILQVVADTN
Chain of GRID2IP_2, A4D2P6 (A4D2P6 272-370): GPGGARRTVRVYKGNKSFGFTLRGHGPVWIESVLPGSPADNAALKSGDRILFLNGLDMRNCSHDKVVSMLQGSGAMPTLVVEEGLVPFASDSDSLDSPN
Chain of SCRIB_2, Q14160 (Q14160 857-960): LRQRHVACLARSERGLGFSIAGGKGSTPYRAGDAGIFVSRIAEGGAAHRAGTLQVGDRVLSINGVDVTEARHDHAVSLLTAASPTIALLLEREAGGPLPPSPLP
Chain of GRIP2_5, Q9C0E4 (Q9C0E4 544-642): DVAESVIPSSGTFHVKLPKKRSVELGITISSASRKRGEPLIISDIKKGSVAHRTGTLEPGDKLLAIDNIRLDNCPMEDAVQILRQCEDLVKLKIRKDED
Chain of GRIP2_7, Q9C0E4 (Q9C0E4 934-1023): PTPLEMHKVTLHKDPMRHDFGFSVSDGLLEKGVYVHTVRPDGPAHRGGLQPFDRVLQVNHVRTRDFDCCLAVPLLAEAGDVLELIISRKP
Chain of LAP2, Q96RT1 (Q96RT1 other isoform, or with tags, fused parts or gaps): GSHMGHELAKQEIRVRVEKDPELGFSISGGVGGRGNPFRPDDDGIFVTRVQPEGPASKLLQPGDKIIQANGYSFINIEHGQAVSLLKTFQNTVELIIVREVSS
Chain of NHERF4_1, Q86UT5-2 (Q86UT5 other isoform, or with tags, fused parts or gaps): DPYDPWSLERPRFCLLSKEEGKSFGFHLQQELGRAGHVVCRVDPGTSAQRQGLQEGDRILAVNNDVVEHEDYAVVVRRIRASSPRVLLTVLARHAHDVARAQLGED
Chain of LDB3, O75112 (O75112 1-94): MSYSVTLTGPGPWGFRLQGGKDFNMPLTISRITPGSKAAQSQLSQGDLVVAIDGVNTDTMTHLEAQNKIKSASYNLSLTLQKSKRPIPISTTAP
Chain of DLG4_3, P78352 (P78352 306-403): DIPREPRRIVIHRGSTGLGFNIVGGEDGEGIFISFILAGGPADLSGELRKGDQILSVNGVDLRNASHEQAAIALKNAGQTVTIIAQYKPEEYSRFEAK

pKd (CARD11, Q9BXL7)	pKd (DLG4_3, P78352)	pKd (DLG5_1, Q8TDM6)	pKd (GOPC, Q9HD26)	pKd (GRID2IP_2, A4D2P6)	pKd (GRIP2_5, Q9C0E4)	pKd (GRIP2_7, Q9C0E4)	pKd (HTRA3, P83110)	pKd (IL16_3, Q14005)	pKd (Inadl_10, Q8NI35)	pKd (Inadl_5, Q8NI35)	pKd (LAP2, Q96RT1)	pKd (LDB3, O75112)	pKd (LIN7B, Q9HAP6)	pKd (LNX2_2, Q8N448)	pKd (LRRC7, Q96NW7)	pKd (MAGI2_4, Q86UL8)	pKd (NHERF3_1, Q5T2W1)	pKd (NHERF3_3, Q5T2W1)	pKd (NHERF4_1, Q86UT5-2)	Binder	also measured
below the threshold	3.72	below the threshold	4.89	4.26	below the threshold	below the threshold	below the threshold	below the threshold	below the threshold	below the threshold	below the threshold	below the threshold	3.89	below the threshold	below the threshold	below the threshold	4.36	below the threshold	below the threshold	PTPDLPQTRV [KLHDC7A, Q5VTJ3]	pKd (NHERF4_2, Q86UT5): below the threshold; pKd (PCLO, Q9Y6V0): below the threshold; pKd (PICK1, Q9NRD5): 4.18; pKd (SCRIB_2, Q14160): 3.48; pKd (SCRIB_3, Q14160): below the threshold; pKd (SNTG1, Q9NSN8): 4.36; pKd (SNX27, Q96L92): 4.21; pKd (TJP2_1, Q9UDY2): below the threshold
below the threshold	4.42	below the threshold	3.51	below the threshold	below the threshold	below the threshold	below the threshold	below the threshold	below the threshold	below the threshold	4.37	below the threshold	below the threshold	below the threshold	4.15	4.09	4.03	below the threshold	below the threshold	ARGPPRESEV [FAM110D, Q8TAY7]	pKd (NHERF4_2, Q86UT5): below the threshold; pKd (PCLO, Q9Y6V0): below the threshold; pKd (PICK1, Q9NRD5): below the threshold; pKd (SCRIB_2, Q14160): 4.9; pKd (SCRIB_3, Q14160): 4.63; pKd (SNTG1, Q9NSN8): 5.23; pKd (SNX27, Q96L92): 4.65; pKd (TJP2_1, Q9UDY2): below the threshold
below the threshold	4.89	below the threshold	3.72	3.94	3.54	below the threshold	below the threshold	below the threshold	below the threshold	below the threshold	below the threshold	below the threshold	below the threshold	below the threshold	below the threshold	3.69	3.48	below the threshold	3.67	NTLNRKTTPV [CACNG8, Q8WXS5]	pKd (NHERF4_2, Q86UT5): 3.53; pKd (PCLO, Q9Y6V0): below the threshold; pKd (PICK1, Q9NRD5): 4.17; pKd (SCRIB_2, Q14160): 3.62; pKd (SCRIB_3, Q14160): 3.88; pKd (SNTG1, Q9NSN8): below the threshold; pKd (SNX27, Q96L92): 4.98; pKd (TJP2_1, Q9UDY2): 4.05
below the threshold	below the threshold	below the threshold	below the threshold	3.71	below the threshold	below the threshold	3.58	below the threshold	below the threshold	below the threshold	4.09	below the threshold	3.62	below the threshold	below the threshold	below the threshold	below the threshold	below the threshold	below the threshold	QRPYRRGSEI [KCNJ18, B7U540]	pKd (NHERF4_2, Q86UT5): below the threshold; pKd (PCLO, Q9Y6V0): below the threshold; pKd (PICK1, Q9NRD5): below the threshold; pKd (SCRIB_2, Q14160): 3.49; pKd (SCRIB_3, Q14160): 4.05; pKd (SNTG1, Q9NSN8): below the threshold; pKd (SNX27, Q96L92): below the threshold; pKd (TJP2_1, Q9UDY2): below the threshold
below the threshold	below the threshold	below the threshold	below the threshold	3.56	below the threshold	below the threshold	4.15	below the threshold	below the threshold	3.68	below the threshold	below the threshold	below the threshold	4.04	below the threshold	3.65	4.48	below the threshold	3.7	ARSAAASNYV [CLDN4, O14493]	pKd (NHERF4_2, Q86UT5): below the threshold; pKd (PCLO, Q9Y6V0): below the threshold; pKd (PICK1, Q9NRD5): 4.15; pKd (SCRIB_2, Q14160): below the threshold; pKd (SCRIB_3, Q14160): below the threshold; pKd (SNTG1, Q9NSN8): below the threshold; pKd (SNX27, Q96L92): 3.53; pKd (TJP2_1, Q9UDY2): 3.92
